Measured values taken from patent US20240002497A1 (Merck Sharp & Dohme, published 2024).
Substitutions are numbered along the chain they refer to. Names may count otherwise. Values belong to the binder of their own block, whether it stands above or below them.

How the values were obtained:
huNav1.7α + β1-β2-β3 [1] = target: T1, huNav1.7α + β1-β2-β3 (human, UniProt Q15858 1-1988; A5A6L6 19-218; O60939 30-215; Q2KI11 23-215); assay: binding FACS, CHO FlpIn cells
T1 construct: Cell line (CHO FlpIn, HEK FlpIn, transient HEK293T) is named under assay; also called huNav1.7-beta1-beta2-beta3; human Nav1.7α with Navβ1, Navβ2 and Navβ3
Experimental: (§1) Binding of the ISVDs to cell-expressed Nav1.7α was detected via murine anti-Flag (Sigma, catalog #F1804). Briefly, cells were resuspended in FACS buffer (PBS, 10% FBS, NaN₃) and transferred to a 96-well V-bottom plate at 1×10^5 cells/well. Purified FLAG3-tagged ISVD was diluted in FACS buffer and added to the cells for 30 minutes at 4° C. […] Prior to the read-out, the samples were resuspended in 1 μg/mL propidium iodide (Sigma, catalog #P4170) to exclude dead cells. Between each step, the cells were centrifuged for 5 minutes at 200 grams and washed with 100 μL/well FACS buffer.

rhNav1.7α + β1-β2-β3 = target: T2, rhNav1.7α + β1-β2-β3 (rhesus monkey); assay: binding FACS, CHO FlpIn cells
T2 construct: also called rhNav1.7-beta1-beta2-beta3; rhesus Nav1.7α
Experimental: as §1

huNav1.7α + β1-β2-β3 [2] = target: T3, huNav1.7α + β1-β2-β3 (human, UniProt Q15858 1-1988; A5A6L6 19-218; O60939 30-215; Q2KI11 23-215); assay: binding FACS, CHO FlpIn
T3 construct: also called huNav1.7-beta1-beta2-beta3; huNav1.7-β1-β2-β3
Experimental: as §1

B1: F010302345 (VHH)
VHH: EVQLVESGGGVVQPGGSLRLSCAASHRQFIRDVFTGWYRQAPGKQRELVARIYEGGNTQYADSAKGRFTISRDNAKKTVYLQMNSLRPEDTALYYCLFSGTISTGREYRSGDYWGQGTLVTVSS
Bmax (huNav1.7α + β1-β2-β3 [1]): 100% | EC50 (huNav1.7α + β1-β2-β3 [1]): 4.9 nM | Bmax (rhNav1.7α + β1-β2-β3): 96% | EC50 (rhNav1.7α + β1-β2-β3): 12 nM

B2: F010302357 (VHH)
VHH: B1 VHH with H26S, E54N, G55E, Q59N, A64V
Bmax (huNav1.7α + β1-β2-β3 [2]): 100% | EC50 (huNav1.7α + β1-β2-β3 [2]): 5.3 nM

B3: F010302335 (VHH)
VHH: B1 VHH with H26S, Q40R, G55S
Bmax (huNav1.7α + β1-β2-β3 [1]): 100% | EC50 (huNav1.7α + β1-β2-β3 [1]): 4.1 nM | Bmax (rhNav1.7α + β1-β2-β3): 84% | EC50 (rhNav1.7α + β1-β2-β3): 13 nM

B5: F010302342 (VHH)
VHH: B1 VHH with H26S, E54N, G55E
Bmax (huNav1.7α + β1-β2-β3 [1]): 100% | EC50 (huNav1.7α + β1-β2-β3 [1]): 4 nM | Bmax (rhNav1.7α + β1-β2-β3): 61% | EC50 (rhNav1.7α + β1-β2-β3): 16 nM

B8: F010302340 (VHH)
VHH: B1 VHH with Q28A, V33L, Q40R, G55S, Q59N
Bmax (huNav1.7α + β1-β2-β3 [1]): 100% | EC50 (huNav1.7α + β1-β2-β3 [1]): 4.6 nM | Bmax (rhNav1.7α + β1-β2-β3): 96% | EC50 (rhNav1.7α + β1-β2-β3): 13 nM

B13: F010301870 (VHH)
VHH: EVQLVESGGGVVQPGGSLRLSCATTSRAFIRDVFTGWYRRVPGKERELVARIYNGGNTNYADFAKGRFTISRDNAKKMVYLQMNSLRPEDTALYYCNFSGTINTGREYRSGDYWGQGTLVTVSS
notes: also called F0103464B09(L11V, S68T, T79Y, R81Q, S82aN, N82bS, K83R, G88A, V89L, L93N)
Bmax (huNav1.7α + β1-β2-β3 [2]): 100% | EC50 (huNav1.7α + β1-β2-β3 [2]): 10 nM

B17: F010302368 (VHH)
VHH: B1 VHH with H26S, Q28A, E54N, Q59N, A64V
notes: also called F0103464B09(L11V, T24A, T25S, R39Q, V40A, E44Q, F62S, A63V, S68T, M77T, T79Y, R81Q, S82aN, N82bS, K83R, G88A, V89L,N99S)
Bmax (huNav1.7α + β1-β2-β3 [2]): 100% | EC50 (huNav1.7α + β1-β2-β3 [2]): 3.9 nM

More lines, now with the values ahead:

Bmax (huNav1.7α + β1-β2-β3 [1]): 100% | EC50 (huNav1.7α + β1-β2-β3 [1]): 3.6 nM | Bmax (rhNav1.7α + β1-β2-β3): 79% | EC50 (rhNav1.7α + β1-β2-β3): 9.7 nM
B4: F010302336 (VHH)
VHH: B1 VHH with Q40R, E54N, G55E

Bmax (huNav1.7α + β1-β2-β3 [1]): 100% | EC50 (huNav1.7α + β1-β2-β3 [1]): 3.4 nM | Bmax (rhNav1.7α + β1-β2-β3): 100% | EC50 (rhNav1.7α + β1-β2-β3): 7.9 nM
B6: F010302338 (VHH)
VHH: B1 VHH with Q28A, Q40R, G55S

Bmax (huNav1.7α + β1-β2-β3 [1]): 100% | EC50 (huNav1.7α + β1-β2-β3 [1]): 4 nM | Bmax (rhNav1.7α + β1-β2-β3): 70% | EC50 (rhNav1.7α + β1-β2-β3): 11 nM
B7: F010302334 (VHH)
VHH: B1 VHH with H26S, Q40R, E54N, G55E

Bmax (huNav1.7α + β1-β2-β3 [1]): 100% | EC50 (huNav1.7α + β1-β2-β3 [1]): 4.3 nM | Bmax (rhNav1.7α + β1-β2-β3): 100% | EC50 (rhNav1.7α + β1-β2-β3): 6.8 nM
B9: F010302339 (VHH)
VHH: B1 VHH with Q28A, Q40R

Bmax (huNav1.7α + β1-β2-β3 [1]): 100% | EC50 (huNav1.7α + β1-β2-β3 [1]): 3.9 nM | Bmax (rhNav1.7α + β1-β2-β3): 100% | EC50 (rhNav1.7α + β1-β2-β3): 6.8 nM
B10: F010302337 (VHH)
VHH: B1 VHH with Q40R

Bmax (huNav1.7α + β1-β2-β3 [1]): 100% | EC50 (huNav1.7α + β1-β2-β3 [1]): 5.3 nM | binding result (rhNav1.7α + β1-β2-β3): no binding
B11: F010302341 (VHH)
VHH: B1 VHH with H26S, E54N, G55E, Q59N

Bmax (huNav1.7α + β1-β2-β3 [1]): 100% | EC50 (huNav1.7α + β1-β2-β3 [1]): 4.1 nM | binding result (rhNav1.7α + β1-β2-β3): no binding
B12: F010302333 (VHH)
VHH: B1 VHH with H26S, Q40R, E54N, G55E, Q59N

Bmax (huNav1.7α + β1-β2-β3 [2]): 100% | EC50 (huNav1.7α + β1-β2-β3 [2]): 3.7 nM
B14: F010302366 (VHH)
VHH: B1 VHH with H26S, Q28A, E54N, Q59N
notes: also called F0103464B09(L11V, T24A, T25S, R39Q, V40A, E44Q, F62S, S68T, M77T, T79Y, R81Q, S82aN, N82bS, K83R, G88A, V89L, N99S)

Bmax (huNav1.7α + β1-β2-β3 [2]): 100% | EC50 (huNav1.7α + β1-β2-β3 [2]): 3.1 nM
B15: F010302365 (VHH)
VHH: B1 VHH with H26S, Q28A, Q40R, E54N, Q59N
notes: also called F0103464B09(L11V, T24A, T25S, V40A, E44Q, F62S, S68T, M77T, T79Y, R81Q, S82aN, N82bS, K83R, G88A, V89L, N99S)

Bmax (huNav1.7α + β1-β2-β3 [2]): 100% | EC50 (huNav1.7α + β1-β2-β3 [2]): 4.1 nM
B16: F010302333 (VHH)
VHH: B1 VHH with H26S, Q40R, E54N, G55E, Q59N
